From patent publication EP0621339B1 (TAKARA SHUZO CO. LTD., dated 2001)

What was measured:
Experiment in all cases: cell-based or functional assay
[1] = molecular target: HA molecule (haemagglutinin) of A2/Aichi/2/68 (H3N2) (influenza A virus, H3N2 subtype, strain A2/Aichi/2/68)
[2] = molecular target: HA molecule (haemagglutinin) of influenza B virus B/Nagasaki/1/87 (influenza B virus, strain B/Nagasaki/1/87)
[3] = molecular target: HA molecule (haemagglutinin) of A/Izumi/5/65 (H2N2) (influenza A virus, H2N2 subtype, strain A/Izumi/5/65)
[4] = molecular target: HA molecule (haemagglutinin) of A/Ibaraki/1/90 (H3N2) (influenza A virus, H3N2 subtype, strain A/Ibaraki/1/90)
[5] = molecular target: HA molecule (haemagglutinin) of A/Kaizuka/2/65 (H2N2) (influenza A virus, H2N2 subtype, strain A/Kaizuka/2/65)
[6] = molecular target: HA molecule (haemagglutinin) of A/Yamagata/120/86 (H1N1) (influenza A virus, H1N1 subtype, strain A/Yamagata/120/86)
[7] = molecular target: HA molecule (haemagglutinin) of A/Sichuan/2/87 (H3N2) (influenza A virus, H3N2 subtype, strain A/Sichuan/2/87)
[8] = molecular target: HA molecule (haemagglutinin) of A/Kitakyushu/159/93 (H3N2) (influenza A virus, H3N2 subtype, strain A/Kitakyushu/159/93)
[9] = molecular target: HA molecule (haemagglutinin) of A/Adachi/2/57 (H2N2) (influenza A virus, H2N2 subtype, strain A/Adachi/2/57)
[10] = molecular target: HA molecule (haemagglutinin) of A/Bangkok/10/83 (H1N1) (influenza A virus, H1N1 subtype, strain A/Bangkok/10/83)
[11] = molecular target: HA molecule (haemagglutinin) of A/Fukuoka/C29/85 (H3N2) (influenza A virus, H3N2 subtype, strain A/Fukuoka/C29/85)
[12] = molecular target: HA molecule (haemagglutinin) of A/Osaka/930/88 (H1N1) (influenza A virus, H1N1 subtype, strain A/Osaka/930/88)
[13] = molecular target: HA molecule (haemagglutinin) of A1/FM/1/47 (H1N1) (influenza A virus, H1N1 subtype, strain A1/FM/1/47)
[14] = molecular target: HA molecule (haemagglutinin) of A/Kumamoto/1/65 (H2N2) (influenza A virus, H2N2 subtype, strain A/Kumamoto/1/65)
[15] = molecular target: HA molecule (haemagglutinin) of A/Suita/1/90 (H3N2) (influenza A virus, H3N2 subtype, strain A/Suita/1/90)
[16] = molecular target: HA molecule (haemagglutinin) of A/PR/8/34 (H1N1) (influenza A virus, H1N1 subtype, strain …, UniProt P03452 18-565)
Chain of HA molecule (haemagglutinin) of A/PR/8/34 (H1N1) (P03452 18-565): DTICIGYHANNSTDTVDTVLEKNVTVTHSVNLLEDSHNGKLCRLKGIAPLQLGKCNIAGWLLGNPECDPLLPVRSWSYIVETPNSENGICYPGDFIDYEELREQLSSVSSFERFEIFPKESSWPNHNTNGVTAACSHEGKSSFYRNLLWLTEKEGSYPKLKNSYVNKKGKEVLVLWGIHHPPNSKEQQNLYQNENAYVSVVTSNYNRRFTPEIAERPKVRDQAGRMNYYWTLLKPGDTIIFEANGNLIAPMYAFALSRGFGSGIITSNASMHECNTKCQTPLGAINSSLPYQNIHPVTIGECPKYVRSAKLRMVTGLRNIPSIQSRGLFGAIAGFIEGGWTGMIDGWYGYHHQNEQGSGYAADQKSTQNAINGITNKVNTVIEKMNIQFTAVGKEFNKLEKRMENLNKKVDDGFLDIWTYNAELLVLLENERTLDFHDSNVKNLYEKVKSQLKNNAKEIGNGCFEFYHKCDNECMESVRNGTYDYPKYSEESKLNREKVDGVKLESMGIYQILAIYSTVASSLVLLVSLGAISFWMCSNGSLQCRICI

Molecule	HI (hemagglutination inhibition titer) (fold dilution of the ascites fluid) [1]	HI (hemagglutination inhibition titer) (fold dilution of the ascites fluid) [2]	HI (hemagglutination inhibition titer) (fold dilution of the ascites fluid) [3]	HI (hemagglutination inhibition titer) (fold dilution of the ascites fluid) [4]	HI (hemagglutination inhibition titer) (fold dilution of the ascites fluid) [5]	HI (hemagglutination inhibition titer) (fold dilution of the ascites fluid) [6]	HI (hemagglutination inhibition titer) (fold dilution of the ascites fluid) [7]	HI (hemagglutination inhibition titer) (fold dilution of the ascites fluid) [8]	HI (hemagglutination inhibition titer) (fold dilution of the ascites fluid) [9]	HI (hemagglutination inhibition titer) (fold dilution of the ascites fluid) [10]	HI (hemagglutination inhibition titer) (fold dilution of the ascites fluid) [11]	HI (hemagglutination inhibition titer) (fold dilution of the ascites fluid) [12]	HI (hemagglutination inhibition titer) (fold dilution of the ascites fluid) [13]	HI (hemagglutination inhibition titer) (fold dilution of the ascites fluid) [14]	HI (hemagglutination inhibition titer) (fold dilution of the ascites fluid) [15]	HI (hemagglutination inhibition titer) [16]
monoclonal antibody C179	< 32	< 32	< 32	< 32	< 32	< 32	< 32	< 32	< 32	< 32	< 32	< 32	< 32	< 32	< 32	–
monoclonal antibody C179 (antibody) chain 1: EVKLVESGGGLVQPGGSLRLSCGTSGFTLTDDYMTWVRQPPGKALEWLGFIRDRANGYTTEYSASVKGRFTISRDNSQSIVYLQMNTLRVEDSATYYCARPKGYFPYAMDYWGQGT chain 2: DIQMTQSPASQSASLGESVTITCLASQTIGTWLAWYQQKPGKSPQLLIYAATSLADGVPSRFSGSGSGTKFSFKISSLQAEDFVSYYCQQLYSTPW	–	–	–	–	–	–	–	–	–	–	–	–	–	–	–	< 32 fold dilution of the ascites fluid
